What was measured:
human Hsp90α [1] = target: T1, human Hsp90α (human, UniProt P07900 1-732); experiment: co-IP; Hsp90α bait held on monoclonal Hsp90 (H90-10) antibody/Protein A-Sepharose beads; p23, FKBP52 and HOP added in the 2:1:2:2 molar ratios; 30°C, 60 minutes; without ATP, with 5mM ATP, 20mM Na2MoO4, and with ATP plus 0.01% dodecyl-maltopyranoside; SDS-PAGE; details: both partners purified
T1 construct: Hsp90α, human, expressed from pET28b-Hsp90α; Dimer by Sephacryl S-200 SEC; also called Hsp90 dimer; source: E. coli BL21 (DE3), purified (Ni2+ HisTrap, Q-Sepharose, Sephacryl S-200)

[2] = target: the molecule itself; experiment: SEC; HiPrep Sephacryl S-200; each protein alone; 50mM Hepes, 150mM NaCl, 50mM KCl, 10mM MgCl2, 1mM DTT, pH 7.5; molecular weight interpolated from standards
human Hsp90α [3] = target: T1, human Hsp90α; experiment: native gel or EMSA; 7.5% Native-PAGE, no detergents, reducing or denaturing agents in the gel buffers; mixtures incubated at 30°C for 60 minutes; with and without 5mM ATP, 20mM Na2MoO4; with and without 0.01% dodecyl-maltopyranoside; details: both partners purified

Binder | binding result (human Hsp90α [1]) | stoichiometry N [2] | stoichiometry N (human Hsp90α [3])
human p23 co-chaperone (natural protein, UniProt Q15185 1-160, looked up, p23 co-chaperone, human, untagged, expressed from pET23-p23; Eluted from Sephacryl S-200 as dimer and monomer; monomer by DLS; source: E. coli BL21 (DE3), purified (DEAE FF, Q-Sepharose, Sephacryl S-200)) MQPASAKWYDRRDYVFIEFCVEDSKDVNVNFEKSKLTFSCLGGSDNFKHLNEIDLFHCIDPNDSKHKRTDRSILCCLRKGESGQSWPRLTKERAKLNWLSVDFNNWKDWEDDSDEDMSNFDRFSEMMNNMGGDEDVDLPEVDGADDDSQDSDDEKMPDLE | binds | – | –
human FKBP52 (52 kDa immunophilin FK506-binding protein) (natural protein, UniProt Q02790 1-459, looked up, FKBP52, human, expressed from pET28b-FKBP52; Dimer in solution by SEC and DLS; The gene is printed as Fkbp4, of the mouse; source: E. coli BL21 (DE3), purified (Ni2+ HisTrap, Q-Sepharose, Sephacryl S-200)) MTAEEMKATESGAQSAPLPMEGVDISPKQDEGVLKVIKREGTGTEMPMIGDRVFVHYTGWLLDGTKFDSSLDRKDKFSFDLGKGEVIKAWDIAIATMKVGEVCHITCKPEYAYGSAGSPPKIPPNATLVFEVELFEFKGEDLTEEEDGGIIRRIQTRGEGYAKPNEGAIVEVALEGYYKDKLFDQRELRFEIGEGENLDLPYGLERAIQRMEKGEHSIVYLKPSYAFGSVGKEKFQIPPNAELKYELHLKSFEKAKESWEMNSEEKLEQSTIVKERGTVYFKEGKYKQALLQYKKIVSWLEYESSFSNEEAQKAQALRLASHLNLAMCHLKLQAFSAAIESCNKALELDSNNEKGLFRRGEAHLAVNDFELARADFQKVLQLYPNNKAAKTQLAVCQQRIRRQLAREKKLYANMFERLAEEENKAKAEASSGDHPTDTEMKEEQKSNTAGSQSQVETEA | – | 2 | 0.5 FKBP52 per Hsp90 chain (1:2)

Reference: PMC3248148, “Hsp90 can Accommodate the Simultaneous Binding of the FKBP52 and HOP Proteins” (Oncotarget, 2011)
